Columns and labels:
[1] = molecular target: T1, rhFAP (Homo sapiens, UniProt Q12884); experiment: Inhibition assay on SB9 oligopeptidase family (DQ-gelatin); format: biochemical; settings: antibody up to 1000 nM, enzyme 0.2 nM
T1 construct: purchased Sino Biologicals 10464-H07H
T1 sequence (Q12884 26-760 limits assumed): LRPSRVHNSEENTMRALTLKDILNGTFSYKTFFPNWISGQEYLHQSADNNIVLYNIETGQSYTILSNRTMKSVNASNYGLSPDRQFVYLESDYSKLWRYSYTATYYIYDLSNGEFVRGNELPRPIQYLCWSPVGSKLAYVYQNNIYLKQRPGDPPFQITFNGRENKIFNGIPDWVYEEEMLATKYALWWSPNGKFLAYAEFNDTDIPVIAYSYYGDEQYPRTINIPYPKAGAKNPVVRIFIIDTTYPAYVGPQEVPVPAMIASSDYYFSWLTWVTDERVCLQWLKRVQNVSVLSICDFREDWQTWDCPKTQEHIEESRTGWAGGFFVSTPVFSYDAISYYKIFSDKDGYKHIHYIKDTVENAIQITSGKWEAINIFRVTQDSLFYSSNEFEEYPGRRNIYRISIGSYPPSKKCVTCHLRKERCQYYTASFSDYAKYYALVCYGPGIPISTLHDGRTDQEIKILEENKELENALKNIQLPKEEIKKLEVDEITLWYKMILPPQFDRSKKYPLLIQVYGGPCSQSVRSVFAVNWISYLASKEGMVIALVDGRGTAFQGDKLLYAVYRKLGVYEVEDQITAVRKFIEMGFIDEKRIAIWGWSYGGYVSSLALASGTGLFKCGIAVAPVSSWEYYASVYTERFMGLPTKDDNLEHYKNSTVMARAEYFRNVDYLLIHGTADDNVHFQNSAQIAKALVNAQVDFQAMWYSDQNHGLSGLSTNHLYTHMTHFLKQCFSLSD
Description: To determine the inhibitory ability of the antibody a black 96 well plate was blocked for 1 h with blocking buffer. NI-206.82C2 was pipetted at concentrations of 1000, 50, 10, 3.03, 1.01, 0.031, 0.001, and 0 nM in PBS into the according wells. The enzymes were added at a concentration of 0.2 nM. Finally, fluorgenic substrates were then added to the well at a concentration equal to the Michaelis constant (Km) and the velocity of the substrate cleavage was quantified by fluorescence at 360 nm excitation and 460 nm emission. H-Gly-Pro-AMC (AAT Bioquest, 13450) was used for DPP4, DPP9, and DPP8. Z-Gly-Pro-AMC (BaChem, I1145) was used to evaluate the activity of POP/PREP. FAP activity was assessed using DQ-gelatin (Life Technologies, D12054) and cleavage quantified at 495 nm excitation and 515 nm emission.

[2] = tested on: murine CT-26 colorectal cancer tissue sections; experiment: Immunofluorescence on murine colorectal cancer tissue sections; set-up: species or system mouse; settings: Cy5 labelled antibody
Description: NI-206.82C2 was prelabelled with Cyanine 5 antibody labeling kit (Innova Biosciences, 342-0010), and sufficient antibody labelling was validated with a photospectrometer. Cryosections of mouse livers containing syngeneic CT-26 liver metastasis were allowed to dry for 30 min at room temperature the fixed for 10 min in 4% formalin in PBS. Slides were then washed 3 times for 5 minutes in PBS and blocked for 1 hr at room temperature with 5% bovine serum albumin in PBS. The slides were then incubated overnight at 4° C. with staining solution containing DAPI at 0.5 μg/mL, and Alexa 547 phalloidin (Invitrogen) according to the manufacturer's instructions, and either Cy5 labelled NI-206.82C2 or a Cy5 labelled isotype-matched control antibody 3A1 at a concentration of 10 µg/mL, in blocking solution with 0.5% Triton X100. Slides were then washed 3 times in PBS, mounted in Lisbeth's mounting medium, and imaged with an SP8 confocal microscope (Leica Microsystems).

[3] = tested on: obstructive human coronary thrombi and aortic atherosclerotic plaque; experiment: Confocal immunofluorescence on coronary thrombi and atherosclerotic plaque; settings: Cyanine 3 labelled antibody
Description: NI-206.82C2 was labelled with Cyanine 3 for fluorescent imaging (Cy3 conjugation kit: Innova Biosciences, 340-0030) and antibody labelling was validated using a spectophotometer. Cryosections from myocardial infarction causing obstructive human coronary thrombi (FIG. 14, A) and human aortic atherosclerotic plaque (FIG. 14, B) were fixed for 5 minutes in ice cold acetone and allowed to dry for 10 minutes before washing in PBS. The sections were then incubated for 1 hr at room temperature in 5% BSA in PBS, and then incubated with Cyanine 3 labelled antibodies overnight at 4° C., before washing three times in PBS before incubation with DAPI at 0.5 μg/mL. Sections were then washed three additional times in PBS and mounted in Lisbeth's mounting medium before imaging on a SP8 confocal microscope (Leica Microsystems).

[4] = tested on: 4T1 breast tumor; experiment: In-vivo fluorescence imaging in 4T1 breast tumor bearing Balb/c mice; settings: fluorescently labeled antibody, tumor mouse model
Description: These antibodies are designated as A680-82C2 (Alexa 680 labelled 82C2) and A680-43A11 (Alexa 680 labelled 43A11).
A murine cancer model was generated by the injection of 100′000 4T1 cultured breast tumor cells orthotopically into the 2nd left breast of Balb/c immunocompetent mice and allowed to grow for 7 days. Prior to in vivo imaging, the animals were shaved and de-epilated to remove fur for minimal absorbance and scattering of the incident optical light. In-vivo imaging was performed with the Maestro 500 imaging system (Cambridge Research Inc, Woburn, USA). For A680-82C2 detection, a band pass filter from 615 nm-665 nm and a highpass filter over 700 nm were used for excitation and emission light respectively, and fluorescence was detected by a CCD camera (cooled to 11° C.). A series of images were acquired at different wavelengths and then subjected to spectral unmixing (deconvolution of collected optical spectra; this enabled the unmixing of the Alexa680 fluorescence pattern from tissue auto-fluorescence and other spectral contributions).
The 4T1-breast tumor bearing Balb/c mice (3-4 in each group) were then injected on day 7 after innoculation with 2 mg/kg of A680-82C2 or A680-43A11. Whole mice images were acquired at the following timepoints: before antibody injection, immediately after antibody injection, 6h, 24h, 48h, and 6d after antibody injection.

[5] = molecular target: T1, rhFAP; experiment: Mechanism of inhibition of rhuFAP-mediated PEP (Z-Gly-Pro-AMC) cleavage; format: biochemical; settings: 0, 10, 100, 1000 nM antibody, 20-100 μM Z-Gly-Pro-AMC, Lineweaver-Burk plot
Description: A black flat bottom standard 96-well ELISA plate was blocked for 1 hr at 37° C. using sterile blocking buffer: 5% bovine serum albumin (BSA) in phosphate buffered saline (PBS). 10 μL of recombinant human FAP solution: 0.4 nM recombinant human FAP (Sino Biologicals, 10464-H07H), in 225 mM Sodium phosphate buffer, pH 7.4) was added to each well. Then, 80 μL of NI-206.82C2 at the indicated concentrations in PBS were added to the wells incubated for 1 hr at 37° C. Then, 10 μL of fluorogenic substrate solution (Z-Gly-Pro-AMC in 40% methanol and 60% 25 […]) was added to each well. The fluorescence intensity was measured at 360 nm excitation and 460 nm emission every 3 min over a total reading time of 2 hr.

inhibition of rhFAP [1]: selectively inhibits
binding to obstructive human coronary thrombi and aortic atherosclerotic plaque [3]: binds
mechanism of inhibition of FAP-mediated PEP cleavage [5]: non-competitive inhibitor
B1: NI-206.82C2: recombinant human memory B cell-derived monoclonal anti-FAP IgG1 antibody, variable regions in FIG. 1A, FAP inhibitory (antibody, V domains shown)
VH: QVQLQQSGPGLVKPSQTLSLTCAISGDSVSSNSVTWNWIRQSPSRGLEWLGRTYYRSKWYNDYAVSVKGRITINPDTSKNQFYLQLKSVTPEDAAVYYCARDSSILYGDYWGQGTLVTVSS
VL: QAVLTQPSSLSASPGASASLTCTLPSGINVGTYRIFWFQQKPGSPPQYLLSYKSDSDNHQGSGVPSRFSGSKDASANAGILLISGLQSEDEADYYCMIWHSSAWVFGGGTKLTVL
staining of CT-26 syngeneic liver metastasis sections [2]: found around the perimeter
antibody concentration after 6 d post antibody injection [4]: almost zero

Source: patent publication US20170369592A1, “NOVEL ANTI-FIBROBLAST ACTIVATION PROTEIN (FAP) ANTIBODIES AND USES DERIVED THEREOF” (Mabimmune Diagnostics AG, priority 2015, published 2017)
